Laboratory results: the supplement of paper PMC10065799, “High-throughput profiling of sequence recognition by tyrosine kinases and SH2 domains using bacterial peptide display” (eLife, 2023)

How the values were obtained:
[1] = tested on: AncSZ; assay: phosphorylation enrichment, bacterial display (enrichment ratio); higher = better substrate or ligand; peptides without Tyr show the background
[2] = tested on: Fer (mouse); assay: as above
[3] = target: Jak2 (UniProt O60674); assay: as above
[4] = target: FGFR1 (UniProt P11362); assay: as above
[5] = target: Fes (UniProt P07332); assay: as above
[6] = target: EPHB2 (UniProt P29323); assay: as above
Chain of EPHB2 (P29323 whole entry, looked up): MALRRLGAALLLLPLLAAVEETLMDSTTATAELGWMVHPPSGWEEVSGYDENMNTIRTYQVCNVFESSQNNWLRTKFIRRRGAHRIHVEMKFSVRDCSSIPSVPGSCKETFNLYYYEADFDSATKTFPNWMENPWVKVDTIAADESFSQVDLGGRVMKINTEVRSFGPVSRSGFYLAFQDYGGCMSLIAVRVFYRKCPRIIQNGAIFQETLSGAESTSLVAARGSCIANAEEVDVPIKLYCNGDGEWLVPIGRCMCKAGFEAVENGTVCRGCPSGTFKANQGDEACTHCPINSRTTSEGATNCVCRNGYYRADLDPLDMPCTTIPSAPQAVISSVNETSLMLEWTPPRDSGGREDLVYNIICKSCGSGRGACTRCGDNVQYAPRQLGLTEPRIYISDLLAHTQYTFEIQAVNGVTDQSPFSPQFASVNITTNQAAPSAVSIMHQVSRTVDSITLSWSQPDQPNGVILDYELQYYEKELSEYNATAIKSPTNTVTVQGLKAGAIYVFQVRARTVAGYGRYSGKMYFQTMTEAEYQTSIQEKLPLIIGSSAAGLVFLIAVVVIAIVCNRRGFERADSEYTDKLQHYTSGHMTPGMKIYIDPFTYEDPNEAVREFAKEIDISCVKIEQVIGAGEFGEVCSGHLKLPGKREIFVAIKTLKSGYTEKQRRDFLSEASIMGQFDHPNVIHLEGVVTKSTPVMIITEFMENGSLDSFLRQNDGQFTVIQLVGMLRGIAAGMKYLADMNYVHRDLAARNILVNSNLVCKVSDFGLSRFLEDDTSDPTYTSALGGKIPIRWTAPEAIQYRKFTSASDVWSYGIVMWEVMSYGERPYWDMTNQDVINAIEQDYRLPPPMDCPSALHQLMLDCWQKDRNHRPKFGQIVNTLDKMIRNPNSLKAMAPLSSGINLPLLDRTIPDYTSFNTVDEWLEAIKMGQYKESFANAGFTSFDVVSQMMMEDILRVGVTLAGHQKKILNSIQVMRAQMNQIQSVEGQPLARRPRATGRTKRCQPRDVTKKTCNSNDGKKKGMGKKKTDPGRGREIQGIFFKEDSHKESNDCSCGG

[7] = target: FGFR3 (UniProt P22607); assay: as above
Chain of FGFR3 (P22607 whole entry, looked up): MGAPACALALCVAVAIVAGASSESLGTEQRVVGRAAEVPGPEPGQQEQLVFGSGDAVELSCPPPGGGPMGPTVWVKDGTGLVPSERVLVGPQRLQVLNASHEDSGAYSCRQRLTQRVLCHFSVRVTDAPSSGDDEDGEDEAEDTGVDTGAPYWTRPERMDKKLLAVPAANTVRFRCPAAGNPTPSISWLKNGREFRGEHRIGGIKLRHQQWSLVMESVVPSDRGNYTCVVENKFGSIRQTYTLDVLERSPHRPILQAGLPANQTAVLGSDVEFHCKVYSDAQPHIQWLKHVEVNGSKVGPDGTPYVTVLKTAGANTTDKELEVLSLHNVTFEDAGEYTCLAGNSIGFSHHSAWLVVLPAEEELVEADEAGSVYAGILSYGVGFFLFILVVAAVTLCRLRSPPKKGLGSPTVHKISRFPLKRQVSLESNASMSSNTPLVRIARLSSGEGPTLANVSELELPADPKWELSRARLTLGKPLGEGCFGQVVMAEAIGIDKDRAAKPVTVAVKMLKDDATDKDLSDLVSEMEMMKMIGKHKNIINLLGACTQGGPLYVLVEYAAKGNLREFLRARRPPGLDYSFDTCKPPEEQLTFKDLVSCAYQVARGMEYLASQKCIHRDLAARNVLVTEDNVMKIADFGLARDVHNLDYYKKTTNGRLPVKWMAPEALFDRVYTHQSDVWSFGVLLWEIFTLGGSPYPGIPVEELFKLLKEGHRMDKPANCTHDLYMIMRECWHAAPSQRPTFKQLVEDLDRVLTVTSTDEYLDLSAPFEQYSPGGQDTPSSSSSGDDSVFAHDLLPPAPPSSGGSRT

[8] = target: Fyn (UniProt P06241); assay: as above
Chain of Fyn (P06241 whole entry, looked up): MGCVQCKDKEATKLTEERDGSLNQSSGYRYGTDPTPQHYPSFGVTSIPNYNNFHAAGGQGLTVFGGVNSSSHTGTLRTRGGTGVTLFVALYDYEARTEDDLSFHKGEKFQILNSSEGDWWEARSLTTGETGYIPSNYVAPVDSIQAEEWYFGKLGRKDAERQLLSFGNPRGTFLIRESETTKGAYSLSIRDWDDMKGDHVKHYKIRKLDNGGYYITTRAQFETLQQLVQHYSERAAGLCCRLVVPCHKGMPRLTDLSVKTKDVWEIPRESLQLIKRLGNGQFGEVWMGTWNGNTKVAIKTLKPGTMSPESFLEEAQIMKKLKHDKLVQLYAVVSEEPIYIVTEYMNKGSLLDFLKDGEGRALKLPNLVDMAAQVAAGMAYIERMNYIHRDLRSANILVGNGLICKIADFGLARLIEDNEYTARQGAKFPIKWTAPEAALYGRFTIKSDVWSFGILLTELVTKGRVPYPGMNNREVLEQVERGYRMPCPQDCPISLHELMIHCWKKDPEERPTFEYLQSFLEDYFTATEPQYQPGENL

[9] = target: MERTK (UniProt Q12866); assay: as above
Chain of MERTK (Q12866 whole entry, looked up): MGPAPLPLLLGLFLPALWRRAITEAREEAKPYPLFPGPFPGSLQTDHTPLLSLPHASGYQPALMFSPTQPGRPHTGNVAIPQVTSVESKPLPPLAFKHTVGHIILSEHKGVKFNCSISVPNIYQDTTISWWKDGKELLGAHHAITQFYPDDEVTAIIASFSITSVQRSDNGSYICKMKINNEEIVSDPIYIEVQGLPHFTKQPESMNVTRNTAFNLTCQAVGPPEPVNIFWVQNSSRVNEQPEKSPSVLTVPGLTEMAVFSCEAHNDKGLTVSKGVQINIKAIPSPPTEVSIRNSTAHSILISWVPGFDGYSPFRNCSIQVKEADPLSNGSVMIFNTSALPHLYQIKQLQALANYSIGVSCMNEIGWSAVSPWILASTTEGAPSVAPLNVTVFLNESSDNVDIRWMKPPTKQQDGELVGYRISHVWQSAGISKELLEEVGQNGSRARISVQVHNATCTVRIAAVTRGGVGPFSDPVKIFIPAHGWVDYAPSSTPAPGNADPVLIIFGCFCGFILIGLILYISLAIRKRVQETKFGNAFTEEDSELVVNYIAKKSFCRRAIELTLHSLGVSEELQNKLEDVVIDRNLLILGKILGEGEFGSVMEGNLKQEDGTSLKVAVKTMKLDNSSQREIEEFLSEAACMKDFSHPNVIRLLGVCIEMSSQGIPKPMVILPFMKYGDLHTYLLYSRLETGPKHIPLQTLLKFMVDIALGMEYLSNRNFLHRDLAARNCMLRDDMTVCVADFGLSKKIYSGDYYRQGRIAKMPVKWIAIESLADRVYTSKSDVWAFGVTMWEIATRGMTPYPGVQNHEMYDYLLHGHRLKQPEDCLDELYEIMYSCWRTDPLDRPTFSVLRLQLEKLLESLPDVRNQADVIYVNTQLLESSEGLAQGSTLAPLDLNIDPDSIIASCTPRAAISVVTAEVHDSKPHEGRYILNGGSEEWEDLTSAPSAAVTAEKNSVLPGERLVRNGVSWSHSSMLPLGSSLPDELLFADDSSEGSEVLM

[10] = target: EPHB1 (UniProt P54762); assay: as above
Chain of EPHB1 (P54762 whole entry, looked up): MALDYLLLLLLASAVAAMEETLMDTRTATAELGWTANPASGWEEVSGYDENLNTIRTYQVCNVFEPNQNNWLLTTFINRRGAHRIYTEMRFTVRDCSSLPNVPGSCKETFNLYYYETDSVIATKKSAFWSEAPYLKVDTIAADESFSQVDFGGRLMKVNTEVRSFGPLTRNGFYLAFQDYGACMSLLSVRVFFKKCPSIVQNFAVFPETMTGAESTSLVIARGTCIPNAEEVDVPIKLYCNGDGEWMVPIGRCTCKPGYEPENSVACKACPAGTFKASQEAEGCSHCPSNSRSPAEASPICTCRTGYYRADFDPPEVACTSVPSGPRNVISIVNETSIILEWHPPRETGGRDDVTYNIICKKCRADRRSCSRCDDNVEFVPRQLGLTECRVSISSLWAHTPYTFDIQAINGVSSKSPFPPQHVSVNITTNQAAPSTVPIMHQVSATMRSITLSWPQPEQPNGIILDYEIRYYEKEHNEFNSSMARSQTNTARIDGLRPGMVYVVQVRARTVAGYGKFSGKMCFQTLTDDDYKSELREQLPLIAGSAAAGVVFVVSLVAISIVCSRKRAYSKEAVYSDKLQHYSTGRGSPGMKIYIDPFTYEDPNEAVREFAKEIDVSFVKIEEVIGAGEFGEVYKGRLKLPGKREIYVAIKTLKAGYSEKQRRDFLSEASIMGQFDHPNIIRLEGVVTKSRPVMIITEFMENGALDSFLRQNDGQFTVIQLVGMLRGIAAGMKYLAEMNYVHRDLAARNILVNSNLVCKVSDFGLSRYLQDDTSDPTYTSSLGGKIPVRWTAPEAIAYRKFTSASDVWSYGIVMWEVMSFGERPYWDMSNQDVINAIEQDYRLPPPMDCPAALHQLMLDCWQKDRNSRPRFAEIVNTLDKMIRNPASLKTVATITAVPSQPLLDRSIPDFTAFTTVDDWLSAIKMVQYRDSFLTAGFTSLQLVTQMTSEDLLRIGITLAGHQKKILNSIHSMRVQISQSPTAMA

[11] = tested on: c-Abl (mouse); assay: as above
[12] = target: Hck (UniProt P08631); assay: as above
Chain of Hck (P08631 whole entry, looked up): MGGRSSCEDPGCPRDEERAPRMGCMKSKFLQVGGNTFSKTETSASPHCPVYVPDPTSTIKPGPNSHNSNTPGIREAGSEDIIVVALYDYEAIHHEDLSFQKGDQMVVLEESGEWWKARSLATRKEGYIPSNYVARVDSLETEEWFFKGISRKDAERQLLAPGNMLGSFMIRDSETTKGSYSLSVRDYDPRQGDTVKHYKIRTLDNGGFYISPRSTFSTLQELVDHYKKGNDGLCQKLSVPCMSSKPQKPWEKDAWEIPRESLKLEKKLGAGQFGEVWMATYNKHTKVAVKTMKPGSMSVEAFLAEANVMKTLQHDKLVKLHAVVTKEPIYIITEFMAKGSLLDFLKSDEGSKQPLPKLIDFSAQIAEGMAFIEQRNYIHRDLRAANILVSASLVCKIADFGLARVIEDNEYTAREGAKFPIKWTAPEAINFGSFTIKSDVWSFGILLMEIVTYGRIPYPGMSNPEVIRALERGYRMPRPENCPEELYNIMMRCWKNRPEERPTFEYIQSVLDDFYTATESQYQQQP

[13] = tested on: c-Src; assay: as above
[14] = target: SHP2-C SH2; assay: SH2 binding enrichment of the phosphorylated peptide, bacterial display (enrichment ratio); higher = better substrate or ligand; peptides without Tyr show the background
[15] = target: Grb2 SH2 (UniProt P62993); assay: as above
[16] = target: c-Src SH2; assay: as above
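Wherever SH2 binding enrichment of the phosphorylated peptide, bacterial display is given: peptide library displayed on the E. coli surface as eCPX fusions, selected cells deep-sequenced, score is each peptide's frequency after selection divided by its frequency in the input.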
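Wherever phosphorylation enrichment, bacterial display is given: 11-residue human phosphosite peptides and single-mutation variants displayed on the E. coli surface, counted by deep sequencing, each peptide's frequency after selection divided by its frequency in the unselected input library; frequency after pTyr selection over input frequency; kinase dosed for 20-30% of maximal phosphorylation in three min.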

SH2 binding enrichment [14]	SH2 binding enrichment [15]	SH2 binding enrichment [16]	Sequence	phosphorylation enrichment [1]	phosphorylation enrichment [2]	phosphorylation enrichment [3]	phosphorylation enrichment [4]	phosphorylation enrichment [5]	phosphorylation enrichment [6]	phosphorylation enrichment [7]	phosphorylation enrichment [8]	phosphorylation enrichment [9]	phosphorylation enrichment [10]	phosphorylation enrichment [11]	phosphorylation enrichment [12]	phosphorylation enrichment [13]
0.958	1.03	0.577	SVVVPSEPPEV [TP53_Y220_Y220S]	0.971	0.426	0.851	0.503	1.12	0.642	0.755	0.511	0.431	0.598	0.74	0.484	0.449
0.602	0.766	0.463	SVVVPYAPPEV [TP53_Y220_E221A]	0.756	0.474	0.719	0.589	0.814	0.499	0.595	0.422	0.423	0.508	0.73	0.43	0.427
0.645	0.837	0.506	SVVVPYEPSEV [TP53_Y220_P223S]	1.21	0.685	1.02	0.52	1.23	0.515	0.846	0.554	0.503	0.632	0.619	0.6	0.509
0.599	0.795	0.546	SVVVPYKPPEV [TP53_Y220_E221K]	0.915	0.471	0.761	0.477	0.792	0.461	0.448	0.458	0.517	0.501	0.584	0.421	0.596
0.775	0.967	0.882	SVVVRYEPPEV [TP53_Y220_P219R]	0.892	0.466	0.705	0.409	0.902	0.503	0.517	0.371	0.425	0.445	0.747	0.42	0.386
0.701	0.706	0.484	TAGFSYEKWEI [TEC_Y360]	1.52	1.46	1	0.533	1.21	0.577	0.72	0.503	0.549	0.472	0.694	0.536	0.463
0.722	0.581	0.724	TAPFNYSFIFK [RAB14_Y8_YF]	0.975	0.376	0.757	0.405	1.1	0.692	0.771	0.493	2.27	2	0.657	0.56	0.377
0.575	0.577	0.449	TDGIAYEFRVT	1.36	0.639	1.37	0.528	1.51	0.582	0.916	0.487	0.403	0.608	0.933	0.49	0.491
0.616	0.661	0.436	TDISLYPSGGT [TENM4_Y399_V396I]	0.637	0.39	0.657	0.457	0.84	0.632	0.536	0.414	0.394	0.46	0.528	0.398	0.391
0.654	0.61	0.333	TENAGYFFQVS	1.11	0.414	1.21	0.714	1.08	0.546	0.774	0.435	0.397	0.482	0.89	0.442	0.384
0.737	0.852	0.829	TEVRRYVLPLN [RPE65_Y368_P363T]	0.649	0.514	0.661	0.482	0.887	0.4	0.785	0.412	0.401	0.377	0.526	0.407	0.38
0.802	0.894	0.591	TNLVPYPCIHF [TUBA1A_Y262_R264C]	0.975	0.517	0.753	0.546	0.96	0.557	0.66	0.492	0.578	0.599	0.646	0.534	0.519

Further lines, the sequence ahead of its results:

Sequence	SH2 binding enrichment [14]	SH2 binding enrichment [15]	SH2 binding enrichment [16]	phosphorylation enrichment [1]	phosphorylation enrichment [2]	phosphorylation enrichment [3]	phosphorylation enrichment [4]	phosphorylation enrichment [5]	phosphorylation enrichment [6]	phosphorylation enrichment [7]	phosphorylation enrichment [8]	phosphorylation enrichment [9]	phosphorylation enrichment [10]	phosphorylation enrichment [11]	phosphorylation enrichment [12]	phosphorylation enrichment [13]
SVVVPYEPPEV [TP53_Y220]	1.11	1.01	0.888	1.25	0.556	1	0.548	1.16	0.645	0.748	0.502	0.531	0.532	0.798	0.55	0.459
SWDKRYCEAGF [ITGA2B_Y197]	0.569	1.07	0.812	0.892	0.531	0.888	0.506	1.28	0.692	0.561	0.509	0.455	0.867	0.687	0.648	0.426
SYNNKYGMVAQ [APOB_Y276_K273N]	0.555	0.713	0.49	0.623	0.411	0.607	0.41	0.632	0.474	0.471	0.428	0.378	0.381	0.61	0.476	0.467
SYTDPYAQPSL [KMT2D_Y2378_P2382S]	0.775	0.823	2.6	1.18	0.479	0.718	3.11	1	0.568	1.89	0.611	0.532	0.583	0.82	0.567	0.576
TEIGQYGNGLK [MORC2_Y100_Q96E]	0.432	0.662	0.51	0.522	0.394	0.588	0.404	0.579	0.434	0.499	0.393	0.354	0.543	0.556	0.448	0.331
TESALYGCTVV [KIAA1804_Y724_L729V]	0.657	0.685	0.336	1.18	5	1.17	0.517	1.43	0.833	0.802	5.73	1.83	0.783	0.888	4.37	4.43
TFRPPYFHRDC [HGD_Y333_N337D_YF]	0.741	1.18	0.93	0.617	0.422	0.685	0.496	0.847	0.431	2	0.427	0.424	0.432	0.587	0.454	0.558
TFVVLYDAELT [ERCC4_Y581_R576T_YF]	1.73	1.38	0.893	1.31	0.669	1.49	0.696	1.61	1.03	0.92	0.712	0.724	1.18	0.979	0.568	0.596
TFWKKYRTFWK [CCDC70_Y125]	1.18	0.843	0.517	0.702	0.409	0.934	0.403	0.8	0.308	0.555	0.46	0.446	0.472	0.723	0.371	0.664
TIAIRYSHSRR [ACOXL_Y260]	0.44	0.608	0.495	0.746	0.632	0.785	0.536	0.918	0.622	0.599	0.644	0.648	0.363	0.655	0.576	0.691
TIMTNYNPNFC [ALK_Y1092_D1091N_YF]	0.531	0.775	0.478	0.987	0.512	0.865	0.576	1.06	0.784	0.694	0.545	0.485	0.43	0.716	0.5	0.533
TISPFYRQSLF [CRYAA_Y48_YF]	0.706	0.85	0.612	0.648	0.369	0.693	0.448	0.76	0.528	0.489	0.437	0.467	0.435	0.49	0.396	0.395
TKAEKYVNKPK [PLCG1_Y991_A995P]	1.16	1.05	0.999	0.72	0.442	0.596	0.594	0.714	0.376	0.534	0.398	0.423	0.336	0.942	0.559	0.467
TKDTFYQQPMF [GBA_Y451_K452Q]	0.637	0.793	0.902	1.07	2.41	0.648	0.605	0.805	2.01	0.589	0.664	4.31	0.583	3.38	0.91	0.639
TKFRNYLIPNG [CYP2C8_Y379_K383N]	0.724	0.946	0.462	0.68	0.394	0.536	0.458	0.679	0.736	0.502	0.553	0.495	0.527	0.631	0.432	0.484
TKQLTYEEQFL [PIK3C3_Y310_D314Y_YF]	0.767	0.98	0.698	1.1	1.03	0.861	0.497	1.08	0.622	0.65	0.509	0.502	0.611	0.661	0.419	0.5
TLMNAYSSRSH [KIF11_Y231]	0.552	0.707	0.427	0.675	0.514	1.08	0.449	0.579	0.517	0.44	0.517	0.636	0.436	0.57	0.516	0.54
TLNFCYQQVKS [PTK2_Y148_F147C]	0.896	0.898	0.786	1.25	0.501	1.07	0.617	1.28	0.709	0.884	0.44	0.399	0.718	0.936	0.52	0.524
TLNTNYHLPPS [MT-ATP8_Y33_M28T]	0.608	0.761	0.483	0.698	0.372	0.485	2.51	0.587	0.451	1.69	0.47	0.57	1.37	0.655	0.343	0.403
TLQWMYGCDVG [HLA-B_Y123_S121W]	0.657	0.772	0.446	1.2	0.566	1.22	0.396	1.34	0.661	0.814	0.437	0.38	0.744	1.05	0.485	0.354
TLSGTYQFIIA [FOXL2_Y81_I80T_YF]	1.13	0.968	1.11	1.27	1.44	0.732	2.22	1.05	0.924	1.9	0.814	2.89	1.31	0.611	1.34	0.892
